Data as given in US20260209363A1 (Chugai, published 2026).

Experiments:
human soluble IL-6R [1] = molecular target: T1, human soluble IL-6R (human, UniProt P08887 20-357, limits assumed); test: in vivo KD in mouse plasma (albumin present), from total antibody, free and bound sIL6R 5 min after sIL6R; antibody 1 mg/kg IV
T1 construct: Soluble form; also called sIL6R; Human IL-6R
T1 sequence (looked up): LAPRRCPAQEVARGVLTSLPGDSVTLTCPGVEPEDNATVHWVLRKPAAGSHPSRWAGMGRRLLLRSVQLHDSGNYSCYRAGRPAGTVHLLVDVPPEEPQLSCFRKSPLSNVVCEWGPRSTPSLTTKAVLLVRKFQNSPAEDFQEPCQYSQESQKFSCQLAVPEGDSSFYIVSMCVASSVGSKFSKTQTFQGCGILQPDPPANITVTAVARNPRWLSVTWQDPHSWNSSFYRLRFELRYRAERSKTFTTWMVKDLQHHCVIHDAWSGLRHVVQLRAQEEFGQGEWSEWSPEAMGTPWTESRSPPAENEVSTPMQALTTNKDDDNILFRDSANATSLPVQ
Protocol: Next, free sIL6R in plasma was measured. The concentration of free sIL6R in plasma was measured on a fully automated ELISA system (Gyrolab xP workstation). First, sIL6R prepared at 23.4, 46.9, 93.8, 188, 375, 750, and 1500 ng/mL using a Protein-Free (PBS) Blocking Buffer (Thermo Scientific) was used as solutions for preparing the calibration curve. Mouse plasma samples were used in the measurements without diluting them. A solution of biotin-labeled H54 diluted to 10 micro g/mL using a Protein-Free (PBS) Blocking Buffer was used as a solution of the sIL6R-capturing molecule. Alexa Fluor (registered trademark) 647-labeled anti-human IL-6R antibody (R&D Systems) diluted to 1 micro g/mL using a Protein-Free (PBS) Blocking Buffer was used as a solution of the human IL-6R-detection molecule. PBS (pH 7.4) containing 0.05% TWEEN was used as a washing solution. The calibration curve solutions, mouse plasma samples, sIL6R-capturing molecule solution, sIL6R-detection molecule solution, and the washing solution were placed onto a PCR plate, and then the PCR plate was sealed with a plate sealer. After the PCR plate and the Bioaffy 200 disc were placed in the Gyrolab xP workstation, measurements were taken. Using the data processed by the Gyros Evaluater 3.6.2.30 software and the calibration curve concentrations, the concentration of free sIL6R in plasma was calculated by logistic regression using the XLfit 5.5.0.5 software.
Additionally, bound sIL6R in plasma was measured. The concentration of bound sIL6R in plasma was measured on an electrospray ionization mass spectrometer connected to a high-performance liquid chromatography (LC/ESI-MS/MS). First, H54//IC17 and sIL6R were mixed, and solutions for preparing the calibration curve of bound sIL6R were prepared at theoretical plasma concentrations of 0.0468, 0.467, 4.60, and 20.1 nmol/mL. The solutions for preparing the calibration curve and 1 or 2 micro L of a plasma sample were added to 75 or 150 micro g of magnetic beads (Magnosphere MS300/Carboxyl, JSR) to which anti-delta GK antibodies were solid-phased, and this was shaken at 25 degrees C. for one hour.

human soluble IL-6R [2] = molecular target: T1, human soluble IL-6R; test: SPR (Biacore T200), antibody captured on Protein G, human IL-6R as analyte, 37 degrees C, no albumin
Protocol: Binding activities of the produced albumin switch molecules against human IL-6R were evaluated using Biacore T200 (Cytiva). As the running buffer, 50 mM Na Phosphate (pH 7.4), 150 mM NaCl, 0.05% Tween20 was used, and the evaluation was performed at 37 degrees C. First, Protein G (CALBIOCHEM) was used as a ligand-capturing molecule. Protein G (CALBIOCHEM) was solid-phased on a Series S Sensor Chip CM4 (Cytiva) using an Amine Coupling Kit (Cytiva). Antibody solution prepared using the running buffer was allowed to interact with this CM4 sensor chip to capture approximately 200 RU of the antibody. Human IL-6R used in the present measurement was prepared by an approach described in WO2018097307 (Example 3-2). Human IL-6R was diluted to 0, 100, and 400 nM with the running buffer, and allowed to bind to the captured antibody. The chip was regenerated using 3 M MgCl₂, and measurements were performed by repeatedly capturing the antibodies. Dissociation constant (KD) of each antibody for human IL-6R was calculated using Biacore T200 Evaluation Software 2.0. Specifically, the association rate constant ka (L/mol/s) and the dissociation rate constant kd (1/s) were calculated by global fitting of the sensorgrams obtained by measurement with the 1:1 Langmuir binding model, and the dissociation constant KD (mol/L) was calculated from these values.

Mouse MOG (R&D system) = molecular target: T2, Mouse MOG (R&D system) (mouse, UniProt Q61885 29-156, limits assumed); test: SPR (Biacore T200), antibody captured by anti-human Fc antibody, mouse MOG as analyte, 25 degrees C, no albumin
T2 construct: also called mouse soluble MOG; soluble MOG
T2 sequence (looked up): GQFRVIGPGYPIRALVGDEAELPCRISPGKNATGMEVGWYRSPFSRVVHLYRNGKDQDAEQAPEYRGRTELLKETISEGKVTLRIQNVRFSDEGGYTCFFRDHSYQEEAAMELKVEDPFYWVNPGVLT
Protocol: Binding activities of the antibodies produced in Example 10 against mouse MOG were assessed using Biacore T200 (Cytiva).
As the running buffer, 50 mM Na Phosphate (pH 7.4), 150 mM NaCl, 0.05% Tween 20, and 0.005% NaN₃ was used, and the assessment was performed at 25 degrees C. First, anti-human Fc antibody (Cytiva) was used as a ligand-capturing molecule. Anti-human Fc antibody (Cytiva) was solid-phased on a Series S Sensor Chip CM4 (Cytiva) using an Amine Coupling Kit (Cytiva). Antibody solutions prepared using the running buffer was allowed to interact with this CM4 sensor chip to capture approximately 480 RU of the antibody. Mouse MOG (R&D system) was diluted to 0, 10, 40, 160, and 640 nM with the running buffer, and then bound to the captured antibody. The chip was regenerated using 3 M MgCl₂, and measurements were performed by repeatedly capturing antibodies. Dissociation constant (KD) of the respective antibodies for mouse MOG was calculated using Biacore T200 Evaluation Software 2.0. Specifically, the association rate constant ka (L/mol/s) and the dissociation rate constant kd (1/s) were calculated by global fitting of the sensorgrams obtained by measurement with the 1:1 Langmuir binding model, and the dissociation constant KD (mol/L) was calculated from these values.

mouse albumin = molecular target: T3, mouse albumin (mouse, UniProt P07724 25-608); test: SPR (Biacore T200), antibody captured by anti-human Fc antibody, mouse albumin as analyte, 25 degrees C
T3 construct: also called recombinant mouse Albumin; mouse serum albumin
Protocol: Binding activities of the produced antibodies against mouse albumin were evaluated using Biacore T200 (Cytiva).
As the running buffer, 50 mM Na Phosphate (pH 7.4), 150 mM NaCl, 0.05% Tween20 was used, and the evaluation was performed at 25 degrees C. First, anti-human Fc antibody (Cytiva) was used as a ligand-capturing molecule. Anti-human Fc antibody (Cytiva) was solid-phased on a Series S Sensor Chip CM4 (Cytiva) using an Amine Coupling Kit (Cytiva). Antibody solution prepared using the running buffer was allowed to interact with this CM4 sensor chip to capture approximately 120 RU of the antibody. Mouse albumin (Bioscience) was diluted to 0 and 300 nM with the running buffer and allowed to bind to the captured antibody. The chip was regenerated using 3 M MgCl₂, and measurements were performed by repeatedly capturing the antibodies. Dissociation constant (KD) of each antibody for mouse albumin was calculated using Biacore T200 Evaluation Software 2.0. Specifically, the association rate constant ka (L/mol/s) and the dissociation rate constant kd (1/s) were calculated by global fitting of the sensorgrams obtained by measurement with the 1:1 Langmuir binding model, and the dissociation constant KD (mol/L) was calculated from these values.

B1: H54//IC17 (bispecific antibody, human IgG1, kappa)
heavy 1: QVQLQESGPGLVKPSETLSLTCAVSGYSISDDQAWSWVRQPPGEGLEWIGYISYSGITNYNPSLKGRVTISRDTSKNQFSLKLSSVTAADTAAYYCARSLARTTAMDYWGEGTLVTVSSASTKGPSVFPLAPSSKSTSGGTAALGCLVEDYFPEPVTVSWNSGALTSGVHTFPAVLQSSGLYSLSSVVTVPSSSLGTQTYICNVNHKPSNTKVDERVEPKSCDKTHTCPPCPAPELRRGPSVFLFPPKPKDTLMISRTPEVTCVVVDVSHEDPEVKFNWYVDGVEVHNAKTKPREEQYNSTYRVVSVLTVLHQDWLNGKEYKCKVSNKALPAPIEKTISKAKGQPREPQVCTLPPSREEMTKNQVSLSCAVKGFYPSDIAVEWESNGQPENNYKTTPPVLDSDGSFFLVSKLTVDKSRWQQGNVFSCSVMHEALHNHYTQKSLSLSP
light 1: DIQMTQSPSSLSASVGDSVTITCQASQDISSYLNWYQQKPGKAPELLIYYGSELHSGVPSRFSGSGSGTDFTFTISSLEAEDAATYYCQQGNSLPYTFGQGTKVEIERTVAAPSVFIFPPSDRKLKSGTASVVCLLNNFYPREAKVQWKVDNALQSGNSQESVTEQDSKDSTYSLSSTLTLSKADYEKHKVYACEVTHQGLSSPVTKSFNRGEC
heavy 2: not shown
light 2: QVQLQQSGPQLVRPGASVKISCKASGYSFTSYWMHWVNQRPGQGLEWIGMIDPSYSETRLNQKFKDKATLTVDKSSSTAYMQLSSPTSEDSAVYYCALYGNYFDYWGQGTTLTVSSASVAAPSVFIFPPSDEQLKSGTASVVCLLNNFYPREAKVQWKVDNALQSGNSQESVTEQDSKDSTYSLSSTLTLSKADYEKHKVYACEVTHQGLSSPVTKSFNRGEC
notes: Heavy chain constant regions lack the C-terminal glycine and lysine; also called anti-human IL-6R/KLH bispecific antibody
B1 gave a Kd (human soluble IL-6R [1]) of 1.3 nM, a Kd (human soluble IL-6R [2]) of 3.41 nM and a koff (human soluble IL-6R [2]) of 0.00141 s⁻¹. For the same binder, the kon (human soluble IL-6R [2]) was 412000 M⁻¹ s⁻¹.

B2: MOG//IC17 (bispecific antibody, human IgG1, kappa)
heavy 1: RVTLRESGPTLVKPTQTLTLTCTFSGFSLSTSGVGVGWIRQPPGKALEWLALIFWDDDSHYSPSLKSRLTITKDTSKNQVVLTMTNMDPVDTATYYCARYYFGSGSYFPSYWYFDLWGRGTLVTVSSASTKGPSVFPLAPSSKSTSGGTAALGCLVEDYFPEPVTVSWNSGALTSGVHTFPAVLQSSGLYSLSSVVTVPSSSLGTQTYICNVNHKPSNTKVDERVEPKSCDKTHTCPPCPAPELRRGPSVFLFPPKPKDTLMISRTPEVTCVVVDVSHEDPEVKFNWYVDGVEVHNAKTKPREEQYNSTYRVVSVLTVLHQDWLNGKEYKCKVSNKALPAPIEKTISKAKGQPREPQVCTLPPSREEMTKNQVSLSCAVKGFYPSDIAVEWESNGQPENNYKTTPPVLDSDGSFFLVSKLTVDKSRWQQGNVFSCSVMHEALHNHYTQKSLSLSP
light 1: not shown
heavy 2: not shown
light 2: B1 light 2
notes: also called MOG307//IC17; IC17//MOG307
B2 gave a Kd (Mouse MOG (R&D system)) of 0.452 nM, a koff (Mouse MOG (R&D system)) of 6.99e-05 s⁻¹ and a kon (Mouse MOG (R&D system)) of 155000 M⁻¹ s⁻¹.

B3: ABD094(H)-H54//IC17 (bispecific antibody, human IgG1, kappa)
heavy 1: LAEAKEAANAELDSYGVSDFYKRLIDKAKTVEGVEALKDAILAALPQVQLQESGPGLVKPSETLSLTCAVSGYSISDDQAWSWVRQPPGEGLEWIGYISYSGITNYNPSLKGRVTISRDTSKNQFSLKLSSVTAADTAAYYCARSLARTTAMDYWGEGTLVTVSSASTKGPSVFPLAPSSKSTSGGTAALGCLVEDYFPEPVTVSWNSGALTSGVHTFPAVLQSSGLYSLSSVVTVPSSSLGTQTYICNVNHKPSNTKVDERVEPKSCDKTHTCPPCPAPELRRGPSVFLFPPKPKDTLMISRTPEVTCVVVDVSHEDPEVKFNWYVDGVEVHNAKTKPREEQYNSTYRVVSVLTVLHQDWLNGKEYKCKVSNKALPAPIEKTISKAKGQPREPQVCTLPPSREEMTKNQVSLSCAVKGFYPSDIAVEWESNGQPENNYKTTPPVLDSDGSFFLVSKLTVDKSRWQQGNVFSCSVMHEALHNHYTQKSLSLSP
light 1: B1 light 1
heavy 2: not shown
light 2: B1 light 2
B3 gave a Kd (human soluble IL-6R [1]) of 3.6 nM, a Kd (mouse albumin) of 14.3 nM and a koff (mouse albumin) of 0.00103 s⁻¹. For the same binder, the kon (mouse albumin) was 71800 M⁻¹ s⁻¹, the Kd (human soluble IL-6R [2]) was 5.21 nM and the koff (human soluble IL-6R [2]) was 0.00133 s⁻¹. It also gave a kon (human soluble IL-6R [2]) of 255000 M⁻¹ s⁻¹.
